Square brackets hold non-standard residues; d marks the D form. Izc = imidazolidine-2-carboxylic acid; Arg(Me) = CNC(=N)NCCC[C@H](N)C(=O)O; dDap = NC[C@@H](N)C(=O)O; Dab = NCC[C@H](N)C(=O)O; azaGly = NNC(=O)O; βAla = NCCC(=O)O
B1: des(1)-Ac-[D-Tyr2,D-His3,Thr5,AzaGly7,Arg(Me)9,Trp10]MS10 (peptide)
peptide: Ac-[dY][dH]NTF[azaGly]L[Arg(Me)]W-NH2
SMILES: CNC(=N)NCCC[C@H](NC(=O)[C@H](CC(C)C)NC(=O)NNC(=O)[C@H](Cc1ccccc1)NC(=O)[C@@H](NC(=O)[C@H](CC(N)=O)NC(=O)[C@@H](Cc1c[nH]cn1)NC(=O)[C@@H](Cc1ccc(O)cc1)NC(C)=O)[C@@H](C)O)C(=O)N[C@@H](Cc1c[nH]c2ccccc12)C(N)=O
B2: des(1)-Ac-[D-Tyr2,D-Gln3,Thr5,AzaGly7,Arg(Me)9,Trp10]MS10 (peptide)
peptide: Ac-[dY][dQ]NTF[azaGly]L[Arg(Me)]W-NH2
SMILES: CNC(=N)NCCC[C@H](NC(=O)[C@H](CC(C)C)NC(=O)NNC(=O)[C@H](Cc1ccccc1)NC(=O)[C@@H](NC(=O)[C@H](CC(N)=O)NC(=O)[C@@H](CCC(N)=O)NC(=O)[C@@H](Cc1ccc(O)cc1)NC(C)=O)[C@@H](C)O)C(=O)N[C@@H](Cc1c[nH]c2ccccc12)C(N)=O
B3: des(1)-Ac-[D-Tyr2,D-Ser3,Thr5,AzaGly7,Arg(Me)9,Trp10]MS10 (peptide)
peptide: Ac-[dY][dS]NTF[azaGly]L[Arg(Me)]W-NH2
SMILES: CNC(=N)NCCC[C@H](NC(=O)[C@H](CC(C)C)NC(=O)NNC(=O)[C@H](Cc1ccccc1)NC(=O)[C@@H](NC(=O)[C@H](CC(N)=O)NC(=O)[C@@H](CO)NC(=O)[C@@H](Cc1ccc(O)cc1)NC(C)=O)[C@@H](C)O)C(=O)N[C@@H](Cc1c[nH]c2ccccc12)C(N)=O
B4: des(1)-Ac-[D-Tyr2,D-Trp3,Dab4,Thr5,AzaGly7,Arg(Me)9,Trp10]MS10 (peptide)
peptide: Ac-[dY][dW][Dab]TF[azaGly]L[Arg(Me)]W-NH2
SMILES: CNC(=N)NCCC[C@H](NC(=O)[C@H](CC(C)C)NC(=O)NNC(=O)[C@H](Cc1ccccc1)NC(=O)[C@@H](NC(=O)[C@H](CCN)NC(=O)[C@@H](Cc1c[nH]c2ccccc12)NC(=O)[C@@H](Cc1ccc(O)cc1)NC(C)=O)[C@@H](C)O)C(=O)N[C@@H](Cc1c[nH]c2ccccc12)C(N)=O
B5: des(1)-Ac-[D-Tyr2,Glu3,Thr5,AzaGly7,Arg(Me)9,Trp10]MS10 (peptide)
peptide: Ac-[dY]ENTF[azaGly]L[Arg(Me)]W-NH2
SMILES: CNC(=N)NCCC[C@H](NC(=O)[C@H](CC(C)C)NC(=O)NNC(=O)[C@H](Cc1ccccc1)NC(=O)[C@@H](NC(=O)[C@H](CC(N)=O)NC(=O)[C@H](CCC(=O)O)NC(=O)[C@@H](Cc1ccc(O)cc1)NC(C)=O)[C@@H](C)O)C(=O)N[C@@H](Cc1c[nH]c2ccccc12)C(N)=O
B6: des(1)-Ac-[D-Tyr2,D-Dap3,Thr5,AzaGly7,Arg(Me)9,Trp10]MS10 (peptide)
peptide: Ac-[dY][dDap]NTF[azaGly]L[Arg(Me)]W-NH2
SMILES: CNC(=N)NCCC[C@H](NC(=O)[C@H](CC(C)C)NC(=O)NNC(=O)[C@H](Cc1ccccc1)NC(=O)[C@@H](NC(=O)[C@H](CC(N)=O)NC(=O)[C@@H](CN)NC(=O)[C@@H](Cc1ccc(O)cc1)NC(C)=O)[C@@H](C)O)C(=O)N[C@@H](Cc1c[nH]c2ccccc12)C(N)=O
B7: des(1)-Ac-[D-Tyr2,Lys3,Thr5,AzaGly7,Arg(Me)9,Trp10]MS10 (peptide)
peptide: Ac-[dY]KNTF[azaGly]L[Arg(Me)]W-NH2
SMILES: CNC(=N)NCCC[C@H](NC(=O)[C@H](CC(C)C)NC(=O)NNC(=O)[C@H](Cc1ccccc1)NC(=O)[C@@H](NC(=O)[C@H](CC(N)=O)NC(=O)[C@H](CCCCN)NC(=O)[C@@H](Cc1ccc(O)cc1)NC(C)=O)[C@@H](C)O)C(=O)N[C@@H](Cc1c[nH]c2ccccc12)C(N)=O
B8: des(1)-Ac-[D-Tyr2,D-Asp3,Thr5,AzaGly7,Arg(Me)9,Trp10]MS10 (peptide)
peptide: Ac-[dY][dD]NTF[azaGly]L[Arg(Me)]W-NH2
SMILES: CNC(=N)NCCC[C@H](NC(=O)[C@H](CC(C)C)NC(=O)NNC(=O)[C@H](Cc1ccccc1)NC(=O)[C@@H](NC(=O)[C@H](CC(N)=O)NC(=O)[C@@H](CC(=O)O)NC(=O)[C@@H](Cc1ccc(O)cc1)NC(C)=O)[C@@H](C)O)C(=O)N[C@@H](Cc1c[nH]c2ccccc12)C(N)=O
B9: des(1)-Ac-[D-Tyr2,Leu3,Thr5,AzaGly7,Arg(Me)9,Trp10]MS10 (peptide)
peptide: Ac-[dY]LNTF[azaGly]L[Arg(Me)]W-NH2
SMILES: CNC(=N)NCCC[C@H](NC(=O)[C@H](CC(C)C)NC(=O)NNC(=O)[C@H](Cc1ccccc1)NC(=O)[C@@H](NC(=O)[C@H](CC(N)=O)NC(=O)[C@H](CC(C)C)NC(=O)[C@@H](Cc1ccc(O)cc1)NC(C)=O)[C@@H](C)O)C(=O)N[C@@H](Cc1c[nH]c2ccccc12)C(N)=O
B10: des(1)-Ac-[D-Tyr2,Ala3,Thr5,AzaGly7,Arg(Me)9,Trp10]MS10 (peptide)
peptide: Ac-[dY]ANTF[azaGly]L[Arg(Me)]W-NH2
SMILES: CNC(=N)NCCC[C@H](NC(=O)[C@H](CC(C)C)NC(=O)NNC(=O)[C@H](Cc1ccccc1)NC(=O)[C@@H](NC(=O)[C@H](CC(N)=O)NC(=O)[C@H](C)NC(=O)[C@@H](Cc1ccc(O)cc1)NC(C)=O)[C@@H](C)O)C(=O)N[C@@H](Cc1c[nH]c2ccccc12)C(N)=O
B11: des(1)-Ac-[D-Tyr2,Izc3,Thr5,AzaGly7,Arg(Me)9,Trp10]MS10 (peptide)
peptide: Ac-[dY][Izc]NTF[azaGly]L[Arg(Me)]W-NH2
B12: des(1)-Ac-[D-Tyr2,β-Ala3,Thr5,AzaGly7,Arg(Me)9,Trp10]MS10 (peptide)
peptide: Ac-[dY][βAla]NTF[azaGly]L[Arg(Me)]W-NH2
SMILES: CNC(=N)NCCC[C@H](NC(=O)[C@H](CC(C)C)NC(=O)NNC(=O)[C@H](Cc1ccccc1)NC(=O)[C@@H](NC(=O)[C@H](CC(N)=O)NC(=O)CCNC(=O)[C@@H](Cc1ccc(O)cc1)NC(C)=O)[C@@H](C)O)C(=O)N[C@@H](Cc1c[nH]c2ccccc12)C(N)=O
B13: des(1)-Ac-[D-Tyr2,Ser3,Thr5,AzaGly7,Arg(Me)9,Trp10]MS10 (peptide)
peptide: Ac-[dY]SNTF[azaGly]L[Arg(Me)]W-NH2
SMILES: CNC(=N)NCCC[C@H](NC(=O)[C@H](CC(C)C)NC(=O)NNC(=O)[C@H](Cc1ccccc1)NC(=O)[C@@H](NC(=O)[C@H](CC(N)=O)NC(=O)[C@H](CO)NC(=O)[C@@H](Cc1ccc(O)cc1)NC(C)=O)[C@@H](C)O)C(=O)N[C@@H](Cc1c[nH]c2ccccc12)C(N)=O
B14: des(1-3)-Ac-[Thr5,AzaGly7,Arg(Me)9,Trp10]MS10 (peptide)
peptide: Ac-NTF[azaGly]L[Arg(Me)]W-NH2
SMILES: CNC(=N)NCCC[C@H](NC(=O)[C@H](CC(C)C)NC(=O)NNC(=O)[C@H](Cc1ccccc1)NC(=O)[C@@H](NC(=O)[C@H](CC(N)=O)NC(C)=O)[C@@H](C)O)C(=O)N[C@@H](Cc1c[nH]c2ccccc12)C(N)=O

Target: human OT7T175 (metastin receptor) (human) (UniProt Q969F8)
Test: cell-based or functional assay

Chain of human OT7T175 (metastin receptor) (human) (Q969F8 whole entry L364H): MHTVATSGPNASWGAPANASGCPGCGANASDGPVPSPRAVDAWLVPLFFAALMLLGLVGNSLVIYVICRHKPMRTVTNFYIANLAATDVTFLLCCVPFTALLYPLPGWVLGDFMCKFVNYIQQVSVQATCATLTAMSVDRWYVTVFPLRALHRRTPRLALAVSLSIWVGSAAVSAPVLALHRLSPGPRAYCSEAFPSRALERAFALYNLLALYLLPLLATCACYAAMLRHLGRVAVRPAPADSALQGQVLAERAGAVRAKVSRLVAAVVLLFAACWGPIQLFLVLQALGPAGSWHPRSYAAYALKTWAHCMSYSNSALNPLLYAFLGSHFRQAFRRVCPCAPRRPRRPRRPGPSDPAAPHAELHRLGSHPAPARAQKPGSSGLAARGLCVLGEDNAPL

| Binder | intracellular Ca ion level-increasing activity [specific activity to Metastin (1-54)] (relative to Metastin (1-54)) |
| --- | --- |
| B1 | 1.6 |
| B2 | 1.4 |
| B3 | 3 |
| B4 | 1.1 |
| B5 | 2.2 |
| B6 | 2.4 |
| B7 | 3 |
| B8 | 3.4 |
| B9 | 3.4 |
| B10 | 2.3 |
| B11 | 2.3 |
| B12 | 2.6 |
| B13 | 2.4 |
| B14 | 9.8 |

Source: patent US20090105152A1
